Laboratory results published in article PMC5000598.

Legend:
[1] = target: LZ-EGFR-GFP (chimeric EGFR with the extracellular domain replaced by the c-Fos leucine zipper, GFP at the C-terminus) (UniProt P01100); experiment: SDS-resistant dimer on SDS-PAGE immunoblot; total Triton X-100 lysates of transfected 293T cells boiled in SDS-loading buffer with beta-mercaptoethanol, no cross-linker; immunoblot with anti-pEGFR antibodies
[2] = target: LZ-EGFR-GFP (chimeric EGFR with the extracellular domain replaced by the c-Fos leucine zipper, GFP at the C-terminus) (UniProt P01100); experiment: cross-linking; homogenates of transiently transfected 293T cells in PBS, 6 mM DSS, 30 min at room temperature, quenched with 250 mM glycine; membrane pellet lysed, SDS-PAGE, immunoblot with anti-EGFR and anti-GFP; EGFR-GFP cells stimulated with EGF (100 ng/mL, 30 min)

stoichiometry N [1]: 2 | stoichiometry N [2]: 2
Substance: LZ-EGFR-GFP (chimeric EGFR with the extracellular domain replaced by the c-Fos leucine zipper, GFP at the C-terminus) (from UniProt P01100 160-200; P00533 623-1210) (receptor)
